T1: C3G-APAA (human, UniProt Q13905-1 4-1077, P283A | P284A | L286 | P287 | P289A | P540A | P541A | L543A | P544A | K546A | …)
T1 construct: human C3G isoform a, residues 4-1077; only P2 kept, P1, P3 and P4 mutated to Ala; source: E. coli BL21 (DE3), purified (IMAC, TEV digestion, reversed IMAC, SEC); not shown: His, N-terminal, cleaved; Halo, N-terminal, cleaved
T1 sequence (looked up): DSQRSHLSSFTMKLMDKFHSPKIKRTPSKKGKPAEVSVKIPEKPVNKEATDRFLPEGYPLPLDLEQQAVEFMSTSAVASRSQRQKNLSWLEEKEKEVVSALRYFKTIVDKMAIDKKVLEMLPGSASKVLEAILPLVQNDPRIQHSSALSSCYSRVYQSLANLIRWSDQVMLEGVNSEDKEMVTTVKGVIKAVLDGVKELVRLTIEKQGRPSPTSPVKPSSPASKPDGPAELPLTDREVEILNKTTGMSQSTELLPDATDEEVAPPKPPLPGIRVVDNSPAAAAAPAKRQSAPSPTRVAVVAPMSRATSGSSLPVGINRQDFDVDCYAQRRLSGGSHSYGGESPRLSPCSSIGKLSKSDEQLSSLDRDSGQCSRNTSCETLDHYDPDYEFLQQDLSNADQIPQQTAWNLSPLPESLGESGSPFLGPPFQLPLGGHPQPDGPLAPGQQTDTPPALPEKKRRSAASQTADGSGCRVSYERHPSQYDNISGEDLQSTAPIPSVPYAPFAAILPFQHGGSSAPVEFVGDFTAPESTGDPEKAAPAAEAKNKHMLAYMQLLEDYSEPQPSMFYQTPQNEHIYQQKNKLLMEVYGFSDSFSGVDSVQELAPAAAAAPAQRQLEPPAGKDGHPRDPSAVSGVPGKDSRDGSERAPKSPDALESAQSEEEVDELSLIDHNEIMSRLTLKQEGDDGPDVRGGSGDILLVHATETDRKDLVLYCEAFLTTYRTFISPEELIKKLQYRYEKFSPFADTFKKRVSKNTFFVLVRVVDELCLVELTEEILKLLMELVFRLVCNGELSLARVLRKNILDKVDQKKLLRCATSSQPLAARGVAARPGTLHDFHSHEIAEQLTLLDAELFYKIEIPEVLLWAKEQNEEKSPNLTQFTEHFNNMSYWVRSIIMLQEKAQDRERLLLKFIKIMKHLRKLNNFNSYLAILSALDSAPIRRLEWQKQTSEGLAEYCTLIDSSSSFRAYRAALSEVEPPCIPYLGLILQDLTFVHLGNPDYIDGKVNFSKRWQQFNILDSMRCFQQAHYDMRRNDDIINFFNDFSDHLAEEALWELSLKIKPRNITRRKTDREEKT

T2: C3G-AAPA-Y554H (human, UniProt Q13905-1 4-1077, P283A | P284A | L286 | P287 | P289A | P453A | P454A | L456A | P457A | K459A | …)
T2 construct: human C3G isoform a, residues 4-1077; source: E. coli BL21 (DE3), purified (IMAC, TEV digestion, reversed IMAC, SEC); not shown: His, N-terminal, cleaved; Halo, N-terminal, cleaved
T2 sequence (looked up): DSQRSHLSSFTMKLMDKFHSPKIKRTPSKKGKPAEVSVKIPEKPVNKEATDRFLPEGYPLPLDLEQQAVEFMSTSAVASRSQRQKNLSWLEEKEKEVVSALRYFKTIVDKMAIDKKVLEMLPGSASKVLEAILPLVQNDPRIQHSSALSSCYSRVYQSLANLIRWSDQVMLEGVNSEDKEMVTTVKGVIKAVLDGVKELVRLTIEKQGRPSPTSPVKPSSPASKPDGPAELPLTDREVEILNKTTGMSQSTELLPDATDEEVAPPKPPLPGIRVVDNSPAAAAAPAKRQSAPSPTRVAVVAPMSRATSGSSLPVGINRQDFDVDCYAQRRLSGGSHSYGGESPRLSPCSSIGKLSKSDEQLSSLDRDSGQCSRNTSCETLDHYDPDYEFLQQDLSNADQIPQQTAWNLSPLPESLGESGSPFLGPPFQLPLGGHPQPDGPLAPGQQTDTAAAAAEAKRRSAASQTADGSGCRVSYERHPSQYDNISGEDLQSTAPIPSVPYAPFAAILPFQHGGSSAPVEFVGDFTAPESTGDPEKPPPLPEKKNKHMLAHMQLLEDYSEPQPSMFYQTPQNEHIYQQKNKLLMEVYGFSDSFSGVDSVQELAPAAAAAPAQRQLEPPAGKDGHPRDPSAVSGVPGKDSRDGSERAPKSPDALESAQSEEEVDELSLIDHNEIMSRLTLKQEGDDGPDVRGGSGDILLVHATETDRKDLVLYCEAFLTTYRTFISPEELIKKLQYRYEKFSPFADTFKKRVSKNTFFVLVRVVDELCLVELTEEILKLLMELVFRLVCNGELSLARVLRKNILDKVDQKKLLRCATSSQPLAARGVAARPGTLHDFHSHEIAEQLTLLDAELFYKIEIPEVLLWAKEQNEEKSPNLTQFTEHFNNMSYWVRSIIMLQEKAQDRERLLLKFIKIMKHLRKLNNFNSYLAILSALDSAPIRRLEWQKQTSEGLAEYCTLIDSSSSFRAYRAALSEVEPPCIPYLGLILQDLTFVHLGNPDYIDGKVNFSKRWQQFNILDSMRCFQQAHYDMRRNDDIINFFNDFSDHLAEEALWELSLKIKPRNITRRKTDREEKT

B1: CrkL (full-length) (natural protein, human, UniProt P46109 1-303, looked up)
chain: MSSARFDSSDRSAWYMGPVSRQEAQTRLQGQRHGMFLVRDSSTCPGDYVLSVSENSRVSHYIINSLPNRRFKIGDQEFDHLPALLEFYKIHYLDTTTLIEPAPRYPSPPMGSVSAPNLPTAEDNLEYVRTLYDFPGNDAEDLPFKKGEILVIIEKPEEQWWSARNKDGRVGMIPVPYVEKLVRSSPHGKHGNRNSNSYGIPEPAHAYAQPQTTTPLPAVSGSPGAAITPLPSTQNGPVFAKAIQKRVPCAYDKTALALEVGDIVKVTRMNINGQWEGEVNGRKGLFPFTHVKIFDPQNPDENE
notes: human CrkL, residues 1-303, in pETEV15b; also called Crk-like protein; source: E. coli BL21 (DE3), purified (IMAC, TEV digestion, SEC); not shown: His, N-terminal, cleaved
B2: CrkL-SH3N (domain or fragment, human, UniProt P46109 125-182, looked up)
chain: LEYVRTLYDFPGNDAEDLPFKKGEILVIIEKPEEQWWSARNKDGRVGMIPVPYVEKLV
notes: human CrkL, SH3N domain, residues 125-182, in pETEV15b; source: E. coli BL21 (DE3), purified (IMAC, TEV digestion, SEC); not shown: His, N-terminal, cleaved

Assays:
C3G-APAA = molecular target: T1, C3G-APAA; test: ITC; single-PRM mutant of C3G in the cell titrated with CrkL or CrkL-SH3N, 25 °C, 300 mM NaCl, pH 7.5; SEDPHAT, 1:1 heteroassociation model; N is the competent fraction of C3G; conditions: both partners purified
C3G-AAPA-Y554H = molecular target: T2, C3G-AAPA-Y554H; test: as above; conditions: both partners purified

Row | Kd (C3G-APAA) [nM] | stoichiometry N (C3G-APAA) | stoichiometry N (C3G-AAPA-Y554H) | Binder
1 | 1200 | 0.78 | – | B1
2 | – | – | 0.47 | B2
